Experimental data as given in patent US20250076311A1 (Chugai, published 2025).

T1: human FcγRIIaH extracellular domain with C-terminal His-tag (human, UniProt P12318 34-217)
T1 construct: also called human FcgRIIaH; FcγRIIa (type H); not shown: His-tag added to C-terminus
T1 sequence: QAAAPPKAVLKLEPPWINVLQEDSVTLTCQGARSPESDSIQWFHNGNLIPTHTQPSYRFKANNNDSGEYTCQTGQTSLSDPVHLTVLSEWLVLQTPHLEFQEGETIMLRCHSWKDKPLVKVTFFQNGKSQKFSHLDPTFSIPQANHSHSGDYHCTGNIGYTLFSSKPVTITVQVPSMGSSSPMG

T2: cynomolgus monkey FcγRIIa1 extracellular domain with C-terminal His-tag (cynomolgus monkey)
T2 construct: also called cyno FcgRIIa1; cynoFcγRIIa1; not shown: His-tag added to C-terminus
T2 chain: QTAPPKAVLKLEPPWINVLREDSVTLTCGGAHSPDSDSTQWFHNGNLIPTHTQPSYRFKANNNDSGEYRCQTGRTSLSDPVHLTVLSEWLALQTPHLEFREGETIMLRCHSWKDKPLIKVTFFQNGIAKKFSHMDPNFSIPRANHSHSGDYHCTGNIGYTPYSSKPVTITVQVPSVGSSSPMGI

T3: cynomolgus monkey FcγRIIa2 extracellular domain with C-terminal His-tag (cynomolgus monkey)
T3 construct: also called cyno FcgRIIa2; cynoFcγRIIa2
T3 chain: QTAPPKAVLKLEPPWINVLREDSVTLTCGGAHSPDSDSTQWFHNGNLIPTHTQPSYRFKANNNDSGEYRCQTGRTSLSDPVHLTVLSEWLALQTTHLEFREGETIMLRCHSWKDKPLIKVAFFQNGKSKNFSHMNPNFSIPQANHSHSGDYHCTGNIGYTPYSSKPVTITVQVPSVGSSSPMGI

T4: cynomolgus monkey FcγRIIb extracellular domain with C-terminal His-tag (cynomolgus monkey)
T4 construct: also called cyno FcgRIIb; cynoFcγRIIb
T4 chain: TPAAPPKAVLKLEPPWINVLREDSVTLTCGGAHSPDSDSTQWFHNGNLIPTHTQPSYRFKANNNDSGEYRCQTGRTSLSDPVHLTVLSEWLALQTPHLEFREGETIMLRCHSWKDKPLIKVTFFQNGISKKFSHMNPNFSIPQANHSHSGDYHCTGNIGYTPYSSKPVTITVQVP

T5: cynomolgus monkey FcγRIIa3 extracellular domain with C-terminal His-tag (cynomolgus monkey)
T5 construct: also called cyno FcgRIIa3; cynoFcγRIIa3
T5 chain: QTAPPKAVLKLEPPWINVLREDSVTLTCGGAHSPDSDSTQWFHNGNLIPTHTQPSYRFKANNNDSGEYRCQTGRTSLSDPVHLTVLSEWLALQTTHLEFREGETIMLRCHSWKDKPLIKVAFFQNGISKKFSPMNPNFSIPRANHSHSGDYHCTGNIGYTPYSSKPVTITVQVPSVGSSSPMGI

T6: human FcγRIIaR extracellular domain with C-terminal His-tag (human, UniProt P12318 34-217)
T6 construct: also called human FcgRIIaR; FcγRIIa (type R)
T6 chain: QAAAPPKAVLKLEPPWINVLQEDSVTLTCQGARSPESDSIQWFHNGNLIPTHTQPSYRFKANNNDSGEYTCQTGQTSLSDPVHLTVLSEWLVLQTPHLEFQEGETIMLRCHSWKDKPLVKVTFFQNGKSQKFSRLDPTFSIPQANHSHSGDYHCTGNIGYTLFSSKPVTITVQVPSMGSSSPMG


Assays:
[1] = biological target: T7, cynomolgus monkey FcγRIIIaS extracellular domain with C-terminal His-tag (cynomolgus monkey, UniProt A3RFZ7 21-206 (rhesus entry)); experiment: SPR Biacore, antibody captured, FcgR analyte
T7 construct: also called cyno FcgRIIIaS; cynoFcγRIIIaS; not shown: His-tag added to C-terminus
T7 sequence (A3RFZ7 21-206): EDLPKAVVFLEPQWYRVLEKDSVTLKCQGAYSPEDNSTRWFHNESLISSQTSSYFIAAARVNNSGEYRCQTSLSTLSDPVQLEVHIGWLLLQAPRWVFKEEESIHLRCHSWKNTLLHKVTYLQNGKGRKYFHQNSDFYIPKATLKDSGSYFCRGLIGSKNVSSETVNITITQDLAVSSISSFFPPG

[2] = biological target: T1, human FcγRIIaH extracellular domain …; experiment: SPR Biacore, antibody captured, FcgR analyte
[3] = biological target: T2, cynomolgus monkey FcγRIIa1 …; experiment: SPR Biacore, antibody captured, FcgR analyte
[4] = biological target: T3, cynomolgus monkey FcγRIIa2 …; experiment: SPR (Biacore), KD of SG1 / KD of variant
Description: (§1) The kinetic analysis of interactions between these antibodies and FcγR was carried out using BIACORE® T200 or BIACORE® 4000 (GE Healthcare). HBS-EP+ (GE Healthcare) was used as the running buffer, and the measurement temperature was set to 25° C. […] After the measurement, the antibody captured on the chip was washed off by allowing reaction with 10 mM glycine-HCl, pH1.5 and 25 mM NaOH so that the chip was regenerated and used repeatedly. The sensorgrams obtained as measurement results were analyzed by the 1:1 Langmuir binding model using the BIACORE® Evaluation Software to calculate the binding rate constant ka (L/mol/s) and dissociation rate constant kd (1/s), and the dissociation constant KD (mol/L) was calculated from these values. […] Regarding such interactions, KD values were calculated using the following 1:1 binding model described in BIACORE® T100 Software Handbook BR1006-48 Edition AE.

[5] = biological target: T4, cynomolgus monkey FcγRIIb extracellular …; experiment: SPR (Biacore), KD of SG1 / KD of variant
Description: as §1

[6] = biological target: T5, cynomolgus monkey FcγRIIa3 …; experiment: SPR (Biacore), KD of SG1 / KD of variant
Description: as §1

[7] = biological target: T6, human FcγRIIaR extracellular domain …; experiment: SPR (Biacore), antibody captured, FcgR analyte
Description: as §1

Row | Binder | KD fold (SG1 = 1) [4] [fold] | KD fold (SG1 = 1) [5] [fold] | KD fold (SG1 = 1) [6] [fold] | Kd [7] [nM] | further results
1 | M103205H795-MY198/M103202L889-SK1 (antibody, human IgG1, kappa, name in EU numbering, substitutions in EU numbering, introduced into M103205H795-SG1) heavy: QVTLKESGPVLVKPTETLTLTCTVSGIDLSHDDISWVRQAPGKGLEWVGIISYAGSTYYASWAKGRLTISKDTSKNQVVLTMTNMDPVDTATYYCARGVPAYSHGGDLWGQGTLVTVSSASTKGPSVFPLAPSSKSTSGGTAALGCLVKDYFPEPVTVSWNSGALTSGVHTFPAVLQSSGLYSLSSVVTVPSSSLGTQTYICNVNHKPSNTKVDKKVEPKSCDKTHTCPPCPAPELLNGPVVFLFPPKPKDTLMISRTPEVTCVVVDVSDEDPEVKFNWYVDGVEVHNAKTKPREEQYNSTYRVVSVLTVLHQDWLNGKEYKCKVSNKALPKPIEKTISKAKGQPREPQVYTLPPSREEMTKNQVSLTCLVKGFYPSDIAVEWESNGQPENNYKTTPMVLDSDGSFFLYSKLTVDKSRWQQGNVFSCSVMHEALHNHYTQKSLSLSP light: DIVMTQSPATLSLSPGERATLSCTSSQSVYHANWLSWFQQKPGQPPKLLIYWASTLAYGVPSRFSGSGSGTDFTLTISSLQPEDAATYYCAGGYGGGRYAFGQGTKVEIKRTVAAPSVFIFPPSDEQLKSGTASVVCLLNNFYPREAKVQWKVDNALQSGNSQESVTEQDSKDSTYSLSSTLTLSKADYEKHKVYACEVTHQGLSSPVTKSFNRGEC | – | – | – | – | KD fold (SG1 = 1) [1]: 0.15 fold; KD fold (SG1 = 1) [2]: 1.2 fold; KD fold (SG1 = 1) [3]: 7.5 fold
2 | M103205H795-MY465/M103202L889-SK1 (antibody, Substitutions in EU numbering on SG1) heavy: QVTLKESGPVLVKPTETLTLTCTVSGIDLSHDDISWVRQAPGKGLEWVGIISYAGSTYYASWAKGRLTISKDTSKNQVVLTMTNMDPVDTATYYCARGVPAYSHGGDLWGQGTLVTVSSASTKGPSVFPLAPSSKSTSGGTAALGCLVKDYFPEPVTVSWNSGALTSGVHTFPAVLQSSGLYSLSSVVTVPSSSLGTQTYICNVNHKPSNTKVDKKVEPKSCDKTHTCPPCPKPELLTGPSVFLFPPKPKDTLMISRTPEVTCVVVDVSDEDPEVKFNWYVDGVEVHNAKTKPREEQYNSTYRVVSVLTVLHQDWLNGKEYKCKVSNKALPKPIEKTISKAKGQPREPQVYTLPPSREEMTKNQVSLTCLVKGFYPSDIAVEWESNGQPENNYKTTPPVLDSDGSFFLYSKLTVDKSRWQQGNVFSCSVMHEALHNHYTQKSLSLSP light: DIVMTQSPATLSLSPGERATLSCTSSQSVYHANWLSWFQQKPGQPPKLLIYWASTLAYGVPSRFSGSGSGTDFTLTISSLQPEDAATYYCAGGYGGGRYAFGQGTKVEIKRTVAAPSVFIFPPSDEQLKSGTASVVCLLNNFYPREAKVQWKVDNALQSGNSQESVTEQDSKDSTYSLSSTLTLSKADYEKHKVYACEVTHQGLSSPVTKSFNRGEC | 1.8 | 2.5 | 3.5 | – | –
3 | M103205H795-MY445/M103202L889-SK1 (antibody, human IgG1, kappa, Substitutions in EU numbering on SG1) heavy: QVTLKESGPVLVKPTETLTLTCTVSGIDLSHDDISWVRQAPGKGLEWVGIISYAGSTYYASWAKGRLTISKDTSKNQVVLTMTNMDPVDTATYYCARGVPAYSHGGDLWGQGTLVTVSSASTKGPSVFPLAPSSKSTSGGTAALGCLVKDYFPEPVTVSWNSGALTSGVHTFPAVLQSSGLYSLSSVVTVPSSSLGTQTYICNVNHKPSNTKVDKKVEPKSCDKTHTCPPCPAGELLTGPSVFLFPPKPKDTLMISRTPEVTCVVVDVSDEDPEVKFNWYVDGVEVHNAKTKPREEQYNSTYRVVSVLTVLHQDWLNGKEYKCKVSNKALPKPIEKTISKAKGQPREPQVYTLPPSREEMTKNQVSLTCLVKGFYPSDIAVEWESNGQPENNYKTTPPVLDSDGSFFLYSKLTVDKSRWQQGNVFSCSVMHEALHNHYTQKSLSLSP light: DIVMTQSPATLSLSPGERATLSCTSSQSVYHANWLSWFQQKPGQPPKLLIYWASTLAYGVPSRFSGSGSGTDFTLTISSLQPEDAATYYCAGGYGGGRYAFGQGTKVEIKRTVAAPSVFIFPPSDEQLKSGTASVVCLLNNFYPREAKVQWKVDNALQSGNSQESVTEQDSKDSTYSLSSTLTLSKADYEKHKVYACEVTHQGLSSPVTKSFNRGEC | 0.5 | – | – | 1100 | –

Second part, led by results:

Row | KD fold (SG1 = 1) [4] [fold] | KD fold (SG1 = 1) [5] [fold] | KD fold (SG1 = 1) [6] [fold] | Kd [7] [nM] | Binder | further results
4 | – | – | 2.5 | 640 | M103205H795-MY451/M103202L889-SK1 (antibody, human IgG1, kappa, Substitutions in EU numbering on SG1) heavy: QVTLKESGPVLVKPTETLTLTCTVSGIDLSHDDISWVRQAPGKGLEWVGIISYAGSTYYASWAKGRLTISKDTSKNQVVLTMTNMDPVDTATYYCARGVPAYSHGGDLWGQGTLVTVSSASTKGPSVFPLAPSSKSTSGGTAALGCLVKDYFPEPVTVSWNSGALTSGVHTFPAVLQSSGLYSLSSVVTVPSSSLGTQTYICNVNHKPSNTKVDKKVEPKSCDKTHTCPPCPANELLTGPSVFLFPPKPKDTLMISRTPEVTCVVVDVSDEDPEVKFNWYVDGVEVHNAKTKPREEQYNSTYRVVSVLTVLHQDWLNGKEYKCKVSNKALPKPIEKTISKAKGQPREPQVYTLPPSREEMTKNQVSLTCLVKGFYPSDIAVEWESNGQPENNYKTTPPVLDSDGSFFLYSKLTVDKSRWQQGNVFSCSVMHEALHNHYTQKSLSLSP light: DIVMTQSPATLSLSPGERATLSCTSSQSVYHANWLSWFQQKPGQPPKLLIYWASTLAYGVPSRFSGSGSGTDFTLTISSLQPEDAATYYCAGGYGGGRYAFGQGTKVEIKRTVAAPSVFIFPPSDEQLKSGTASVVCLLNNFYPREAKVQWKVDNALQSGNSQESVTEQDSKDSTYSLSSTLTLSKADYEKHKVYACEVTHQGLSSPVTKSFNRGEC | –
5 | – | 1 | – | – | M103205H795-MY442/M103202L889-SK1 (antibody, human IgG1, kappa, Substitutions in EU numbering on SG1) heavy: QVTLKESGPVLVKPTETLTLTCTVSGIDLSHDDISWVRQAPGKGLEWVGIISYAGSTYYASWAKGRLTISKDTSKNQVVLTMTNMDPVDTATYYCARGVPAYSHGGDLWGQGTLVTVSSASTKGPSVFPLAPSSKSTSGGTAALGCLVKDYFPEPVTVSWNSGALTSGVHTFPAVLQSSGLYSLSSVVTVPSSSLGTQTYICNVNHKPSNTKVDKKVEPKSCDKTHTCPPCPADELLTGPSVFLFPPKPKDTLMISRTPEVTCVVVDVSDEDPEVKFNWYVDGVEVHNAKTKPREEQYNSTYRVVSVLTVLHQDWLNGKEYKCKVSNKALPKPIEKTISKAKGQPREPQVYTLPPSREEMTKNQVSLTCLVKGFYPSDIAVEWESNGQPENNYKTTPPVLDSDGSFFLYSKLTVDKSRWQQGNVFSCSVMHEALHNHYTQKSLSLSP light: DIVMTQSPATLSLSPGERATLSCTSSQSVYHANWLSWFQQKPGQPPKLLIYWASTLAYGVPSRFSGSGSGTDFTLTISSLQPEDAATYYCAGGYGGGRYAFGQGTKVEIKRTVAAPSVFIFPPSDEQLKSGTASVVCLLNNFYPREAKVQWKVDNALQSGNSQESVTEQDSKDSTYSLSSTLTLSKADYEKHKVYACEVTHQGLSSPVTKSFNRGEC | –
6 | – | 3.5 | – | – | M103205H795-MY467/M103202L889-SK1 (antibody, human IgG1, kappa, Substitutions in EU numbering on SG1) heavy: QVTLKESGPVLVKPTETLTLTCTVSGIDLSHDDISWVRQAPGKGLEWVGIISYAGSTYYASWAKGRLTISKDTSKNQVVLTMTNMDPVDTATYYCARGVPAYSHGGDLWGQGTLVTVSSASTKGPSVFPLAPSSKSTSGGTAALGCLVKDYFPEPVTVSWNSGALTSGVHTFPAVLQSSGLYSLSSVVTVPSSSLGTQTYICNVNHKPSNTKVDKKVEPKSCDKTHTCPPCPMPELLTGPSVFLFPPKPKDTLMISRTPEVTCVVVDVSDEDPEVKFNWYVDGVEVHNAKTKPREEQYNSTYRVVSVLTVLHQDWLNGKEYKCKVSNKALPKPIEKTISKAKGQPREPQVYTLPPSREEMTKNQVSLTCLVKGFYPSDIAVEWESNGQPENNYKTTPPVLDSDGSFFLYSKLTVDKSRWQQGNVFSCSVMHEALHNHYTQKSLSLSP light: DIVMTQSPATLSLSPGERATLSCTSSQSVYHANWLSWFQQKPGQPPKLLIYWASTLAYGVPSRFSGSGSGTDFTLTISSLQPEDAATYYCAGGYGGGRYAFGQGTKVEIKRTVAAPSVFIFPPSDEQLKSGTASVVCLLNNFYPREAKVQWKVDNALQSGNSQESVTEQDSKDSTYSLSSTLTLSKADYEKHKVYACEVTHQGLSSPVTKSFNRGEC | –
